What was measured:
Tdp1(Δ148) [1] = biological target: T1, Tdp1(Δ148) (Homo sapiens, UniProt Q9NUW8 149-608); assay: X-ray crystal structure (3.18 Å); product complex; Cross-linking: 10 mM Tris-HCl pH 7.5, 100 mM KCl, 5 µM each, 15 min room temperature then 15 min on ice, UV 312 nm 30 min on ice. Crystal complex: 50 mM HEPES pH 7.8, 50 mM NaCl, on ice, 110 µM complex; settings: protein: recombinant; tags: N-terminal His6; chain copies: 2; blunt, self-complementary, 2 copies of one strand
Tdp1(Δ148) [2] = biological target: T1, Tdp1(Δ148); assay: X-ray crystal structure (2.04 Å); 3'-phosphorylated product complex; Cross-linking: 10 mM Tris-HCl pH 7.5, 100 mM KCl, 5 µM each, 15 min room temperature then 15 min on ice, UV 312 nm 30 min on ice. Crystal complex: 50 mM HEPES pH 7.8, 50 mM NaCl, on ice, 110 µM complex; settings: protein: recombinant; tags: N-terminal His6; chain copies: 2; blunt, self-complementary, 2 copies of one strand
Tdp1(Δ148) H263A = Tdp1(Δ148) H263A (Homo sapiens, UniProt Q9NUW8 149-608, H263A); assay: UV cross-linking (312 nm), SDS-PAGE and MS; cross-link via F259; Cross-linking: 10 mM Tris-HCl pH 7.5, 100 mM KCl, 5 µM each, 15 min room temperature then 15 min on ice, UV 312 nm 30 min on ice. Crystal complex: 50 mM HEPES pH 7.8, 50 mM NaCl, on ice, 110 µM complex; settings: protein: recombinant; tags: N-terminal His6; label: 5' 32P (tracer); 3' biotin-TEG; single strand
Sequence of Tdp1(Δ148) H263A (Q9NUW8 149-608 H263A): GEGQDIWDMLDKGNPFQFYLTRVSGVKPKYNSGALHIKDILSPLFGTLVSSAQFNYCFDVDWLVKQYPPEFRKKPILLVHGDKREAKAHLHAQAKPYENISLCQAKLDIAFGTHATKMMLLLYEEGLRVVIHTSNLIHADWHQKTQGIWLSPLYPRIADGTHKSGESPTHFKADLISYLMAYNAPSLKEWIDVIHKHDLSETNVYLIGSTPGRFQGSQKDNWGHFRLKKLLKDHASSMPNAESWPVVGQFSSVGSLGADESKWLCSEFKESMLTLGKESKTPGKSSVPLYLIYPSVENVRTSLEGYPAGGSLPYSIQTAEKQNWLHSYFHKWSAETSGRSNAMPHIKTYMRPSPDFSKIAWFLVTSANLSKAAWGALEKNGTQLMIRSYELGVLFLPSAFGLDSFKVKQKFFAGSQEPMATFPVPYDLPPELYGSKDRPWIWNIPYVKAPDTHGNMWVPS

T1 sequence (Q9NUW8 149-608, stated change not applied): as the sequence (Q9NUW8 149-608 H263A) above, with A115H counted along it

Binder	binding result (Tdp1(Δ148) H263A)	also measured
-2T 12-mer duplex (dsDNA) DNA 1: CAATGCGCATTG DNA 2: CAATGCGCATTG		binding result (Tdp1(Δ148) [1]): binds
-2G 12-mer duplex (dsDNA) DNA 1: CACTGCGCAGTG DNA 2: CACTGCGCAGTG		binding result (Tdp1(Δ148) [2]): binds
GTAGAGGATCTAAAAGAUTT (ssDNA, 5-iodouracil (5-iodo-dU) at nt 18) [5IdU(-3) 20-mer]	binds	
GTAGAGGATCTAAAAGACUT (ssDNA, 5-iodouracil (5-iodo-dU) at nt 19) [5IdU(-2) 20-mer]	binds	

Source: publication PMC5750209, “Structural basis for DNA 3′-end processing by human tyrosyl-DNA phosphodiesterase 1”
